Data published in the supplement of paper PMC7125110.
± gives the standard error. This sample holds only a part of the variants without activity.

B1: glmS ribozyme (parent)
chain: AUAAAAGCGCCAGAACUACAGAAAUGUAGUUGACGAGGAGGAGGUUUAUCGAAUUUUCGGCGGAUGCCUCCAAA

How the values were obtained:
Conditions in all cases: with glucosamine-6-phosphate
[1] = variants of: B1; assay: self-cleavage kobs at 160 uM GlcN6P; higher = faster cleavage; RNA array
In short: (§1)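 Barcoded ribozyme variants on sequenced MiSeq chips were transcribed in situ by E. coli RNA polymerase and followed at 37 °C through a hybridised Cy3 probe. Glucosamine-6-phosphate at 40 μM to 10 mM in HEPES/KCl/Mg(OAc)2 buffer was flowed in, and tiles were imaged over ~14 h. Signals were normalised to baseline and to non-cleaving reference variants, and per-tile medians were fit to one- or two-exponential decays to give kobs. Weighted Michaelis–Menten fits across concentrations gave kcat and KM.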

[2] = variants of: B1; assay: self-cleavage kobs at 640 uM GlcN6P; higher = faster cleavage; RNA array
In short: as §1

[3] = variants of: B1; assay: self-cleavage kobs at 2500 uM GlcN6P; higher = faster cleavage; RNA array
In short: as §1

[4] = variants of: B1; assay: self-cleavage kobs at 10000 uM GlcN6P; higher = faster cleavage; RNA array
In short: as §1

Variant | self-cleavage kobs at 160 uM GlcN6P [1] [s⁻¹] | self-cleavage kobs at 640 uM GlcN6P [2] [s⁻¹] | self-cleavage kobs at 2500 uM GlcN6P [3] [s⁻¹] | self-cleavage kobs at 10000 uM GlcN6P [4] [s⁻¹]
A6C G38C | < 1e-05 | < 1e-05 |  | 
A12U G32A G37A U45A | < 1e-05 |  |  | 
A14C C50G C70G | 0.000127 ± 3.4e-05 | 0.000437 ± 0.00014 | 0.000126 ± 3.1e-05 | 7.94e-05 ± 1.8e-05
G13A A33C | < 1e-05 | < 1e-05 |  | < 1e-05
G43A U55G | < 1e-05 |  | 4.42e-05 ± 1.1e-05 | 5.21e-05 ± 7.9e-06
G29C A36G G41U | < 1e-05 | < 1e-05 | < 1e-05 | 
G43C U45A C67U | 0.000282 ± 9.2e-05 | 0.000977 ± 0.00034 | 0.00269 ± 0.00071 | 
C11G A14U G35U C70G | 0.000125 ± 4.5e-05 | 0.000575 ± 0.0002 | 0.00022 ± 8.2e-05 | 0.000257 ± 5.4e-05
G51C U54G | < 1e-05 | < 1e-05 |  | 
U30A G40C U49G | < 1e-05 | < 1e-05 | < 1e-05 | 
A6U A12C A53U | < 1e-05 | 3.14e-05 ± 1.3e-05 | 4.17e-05 ± 1.6e-05 | 
A15C U65A | 3.48e-05 ± 1.4e-05 | 0.000177 ± 2.9e-05 | 0.000234 ± 5.7e-05 | 0.000807 ± 0.00016
C16A G37C G59C | < 1e-05 | < 1e-05 |  | 
U45C A48U U65G | < 1e-05 |  |  | 
U31G G44U G51U | < 1e-05 |  |  | 
C8A C16U G29U G62A | < 1e-05 | < 1e-05 |  | 
C8G C50A | < 1e-05 |  | < 1e-05 | < 1e-05
G44U U47C | < 1e-05 |  |  | 
G37U G44A G66U | < 1e-05 |  |  | 
C34U G40C U47A C67G | < 1e-05 |  |  | 
G32C G38A C50G | 0.000156 ± 5.3e-05 | 0.000119 ± 3e-05 | 8.89e-05 ± 2.7e-05 | 
C10A U56C | < 1e-05 | < 1e-05 | < 1e-05 | 
A6G U30G C34G | < 1e-05 |  |  | 
C8U A36U G40C U56A | < 1e-05 |  | < 1e-05 | 
G35A G63A | < 1e-05 |  |  | < 1e-05
A6U G7U G35U U54A | < 1e-05 | < 1e-05 | < 1e-05 | 
